# Measurements as given in article PMC10497535, “Identification of the SNARE complex that mediates the fusion of multivesicular bodies with the plasma membrane in exosome secretion” (Journal of Extracellular Vesicles, 2023).
# T1: recombinant SN-23, mutant of full-length human SNAP-23 (C79A, C80A, C83A, C85A, C87A, C112A) (human, UniProt O00161 1-211, C79A | C80A | C83A | C85A | C87A | C112A)
# T1 construct: SNAP-23, human, full length (residues 1-211) with six cysteines changed to alanine; Cloned into pET28a; source: E. coli BL21 DE3, purified (Nickel-NTA)
# T1 sequence (looked up): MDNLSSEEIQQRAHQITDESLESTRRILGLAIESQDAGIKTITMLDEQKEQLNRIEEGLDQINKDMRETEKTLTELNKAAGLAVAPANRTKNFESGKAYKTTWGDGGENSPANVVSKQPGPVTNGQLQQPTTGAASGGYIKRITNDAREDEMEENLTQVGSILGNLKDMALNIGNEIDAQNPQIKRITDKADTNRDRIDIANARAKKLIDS
# B1: GST-tagged VAMP-7 SNARE motif (residues 125-185) (domain or fragment, human, UniProt P51809 125-185, looked up)
# chain: KVMETQAQVDELKGIMVRNIDLVAQRGERLELLIDKTENLVDSSVTFKTTSRNLARAMCMK
# notes: pGEX-6p-1; PreScission-cleavable GST tag, not cleaved for the pull-down; also called GST-VAMP-7 SNARE motif; source: E. coli BL21 DE3, purified (glutathione Sepharose 4B, eluted with glutathione); not shown: GST, N-terminal, kept
# Columns and labels:
# [1] = biological target: T2, Syx-4 (residues 1-274, the cytoplasmic fragment) (human, UniProt Q12846 1-274); experiment: pull-down; 2 μM GST-VAMP-7 SNARE motif with 3 μM Syx-4 (1-274) and/or 3 μM SN-23 on glutathione Sepharose 4B, 4°C, 5 h; washed with 20 mM Tris-HCl pH 8.0, 150 mM NaCl, 1% Triton X-100; SDS-PAGE; conditions: both partners purified
# T2 construct: syntaxin-4, human, cytoplasmic fragment, residues 1-274; Cloned into pET28a; 'purified as previously described'; also called cytoplasmic fragment of Syx-4; source: E. coli BL21 DE3, purified (Nickel-NTA)
# [2] = biological target: T1, recombinant SN-23, mutant of …; experiment: as above; conditions: both partners purified
binder,measurement,setting,value
B1,binding result,[1],binds
same,binding result,[2],binds
